In publication PMC11984883, “ACAT1‐Mediated ME2 Acetylation Drives Chemoresistance in Ovarian Cancer by Linking Glutaminolysis to Lactate Production” (Advanced Science, 2025):

How the values were obtained:
ME2 (malic enzyme 2) = molecular target: T1, ME2 (malic enzyme 2) (Homo sapiens, UniProt P23368); experiment: […]-pyruvate binding to Flag-bead-bound ME2, scintillation counting
T1 construct: for the malate assay purified from overexpressing 293T cells treated with cisplatin

[1] = molecular target: T2, ME2-flag recombinant protein (WT) (UniProt P23368 19-584); experiment: pull-down; ME2-flag recombinant protein bound to Flag beads, incubated with recombinant ACAT1 or SIRT4 with or without pyruvate (increasing concentrations) for 20 min at room temperature, unbound protein washed out, western blot; conditions: both partners purified
T2 construct: malic enzyme 2 (ME2), wild type; If it was made in mammalian cells, the mitochondrial transit peptide is probably removed (surmise); also called purified ME2-flag protein; ME2-flag WT; not shown: Flag, C-terminal, kept

[2] = molecular target: T3, ME2-flag R511A recombinant protein (UniProt P23368 19-584, R511A); experiment: as above; conditions: both partners purified
T3 construct: Same construct as m7, with the mutation; also called ME2 R511A; source: recombinant, purified; not shown: Flag, C-terminal, kept
T3 sequence (P23368 19-584 R511A): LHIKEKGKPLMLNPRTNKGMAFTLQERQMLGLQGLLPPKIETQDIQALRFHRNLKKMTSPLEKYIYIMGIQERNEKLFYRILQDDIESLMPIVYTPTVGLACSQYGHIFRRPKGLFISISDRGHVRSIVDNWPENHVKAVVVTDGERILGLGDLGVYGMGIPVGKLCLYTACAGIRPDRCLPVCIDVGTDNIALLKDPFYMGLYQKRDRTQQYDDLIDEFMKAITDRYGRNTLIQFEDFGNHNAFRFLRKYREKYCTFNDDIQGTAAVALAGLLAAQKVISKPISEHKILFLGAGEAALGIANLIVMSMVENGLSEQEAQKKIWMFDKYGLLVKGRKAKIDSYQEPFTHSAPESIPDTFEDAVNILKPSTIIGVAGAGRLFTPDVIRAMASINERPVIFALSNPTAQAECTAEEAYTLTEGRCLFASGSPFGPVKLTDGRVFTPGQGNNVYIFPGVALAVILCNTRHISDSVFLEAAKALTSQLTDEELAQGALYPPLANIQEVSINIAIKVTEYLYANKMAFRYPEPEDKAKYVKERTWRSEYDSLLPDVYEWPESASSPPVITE

T2 sequence (P23368 19-584): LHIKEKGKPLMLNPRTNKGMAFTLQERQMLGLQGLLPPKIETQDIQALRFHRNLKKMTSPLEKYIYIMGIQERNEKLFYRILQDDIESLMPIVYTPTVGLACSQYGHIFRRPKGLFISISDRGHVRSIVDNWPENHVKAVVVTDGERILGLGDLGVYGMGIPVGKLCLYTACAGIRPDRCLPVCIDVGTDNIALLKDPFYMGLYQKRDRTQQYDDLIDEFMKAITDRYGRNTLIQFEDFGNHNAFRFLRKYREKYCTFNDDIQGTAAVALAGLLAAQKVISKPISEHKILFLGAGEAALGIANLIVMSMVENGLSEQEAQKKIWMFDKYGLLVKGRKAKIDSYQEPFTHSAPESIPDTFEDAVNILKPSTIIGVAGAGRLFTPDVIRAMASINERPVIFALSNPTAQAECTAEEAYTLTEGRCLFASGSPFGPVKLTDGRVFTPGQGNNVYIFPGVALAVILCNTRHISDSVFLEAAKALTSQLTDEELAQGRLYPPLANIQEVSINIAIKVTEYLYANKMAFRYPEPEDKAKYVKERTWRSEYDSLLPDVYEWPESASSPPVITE
T1 sequence (P23368 19-584): as above

Molecule	Kd (ME2 (malic enzyme 2))	binding result [1]	binding result [2]
CC(=O)C(=O)O [pyruvate]	~6.17 µM		
recombinant SIRT4 (enzyme, UniProt Q9Y6E7 29-314, looked up, SIRT4, recombinant protein; also called purified, recombinant SIRT4; source: recombinant, purified) IGLFVPASPPLDPEKVKELQRFITLSKRLLVMTGAGISTESGIPDYRSEKVGLYARTDRRPIQHGDFVRSAPIRQRYWARNFVGWPQFSSHQPNPAHWALSTWEKLGKLYWLVTQNVDALHTKAGSRRLTELHGCMDRVLCLDCGEQTPRGVLQERFQVLNPTWSAEAHGLAPDGDVFLSEEQVRSFQVPTCVQCGGHLKPDVVFFGDTVNPDKVDFVHKRVKEADSLLVVGSSLQVYSGYRFILTAWEKKLPIAILNIGPTRSDDLACLKLNSRCGELLPLIDPC		binds	binds
recombinant ACAT1 (enzyme, UniProt P24752 34-427, looked up, acetyl-CoA acetyltransferase 1 (ACAT1), recombinant protein; also called purified, recombinant ACAT1; source: recombinant, purified) VSKPTLKEVVIVSATRTPIGSFLGSLSLLPATKLGSIAIQGAIEKAGIPKEEVKEAYMGNVLQGGEGQAPTRQAVLGAGLPISTPCTTINKVCASGMKAIMMASQSLMCGHQDVMVAGGMESMSNVPYVMNRGSTPYGGVKLEDLIVKDGLTDVYNKIHMGSCAENTAKKLNIARNEQDAYAINSYTRSKAAWEAGKFGNEVIPVTVTVKGQPDVVVKEDEEYKRVDFSKVPKLKTVFQKENGTVTAANASTLNDGAAALVLMTADAAKRLNVTPLARIVAFADAAVEPIDFPIAPVYAASMVLKDVGLKKEDIAMWEVNEAFSLVVLANIKMLEIDPQKVNINGGAVSLGHPIGMSGARIVGHLTHALKQGEYGLASICNGGGGASAMLIQKL		binds	binds
